{
  "source": "the DeepSol protein solubility set",
  "data": [
    {"assay": "soluble on expression in E. coli; label from the status in PepcDB or PDB records", "values": [
      {"sequence": "MEEVIWEQYTVTLQKDSKRGFGIAVSGGRDNPHFENGETSIVISDVLPGGPADGLLQENDRVVMVNGTPMEDVLHSFAVQQLRKSGKIAAIVVKRPRKVQVAPLQGSPPLSHDDRGFEVIEEFDGRSFRSGYSERSRHSSHDMLSHSWEGNRERGRPHQRTQSRERERSRGRSLERGLDQEDYGRSRERSRGRSLERGLDRDFVSRDHSRGRSIDRDYDRDYERSYHEAYEPDYGGGYSPSYDRRAHPETRYERSRSREHLRSRSPSPESRSRHEHKGQHDPDRPIGVLLTKSKANEEYGLRLGSQIFIKEMTRTGLATKDGNLHEGDIILKINGTVTENMSLTDARKLIEKSRGKLQLVVLRDSKQTLINIPALNDSDSEVEDISEIESNRSFSPEERRQQYSDQDYHSSTEKLKERPSSREETSGRLSRMGATPTPFKSTGDITAAGVTEASREPRYQEEGPVPQPRTAPRVFLRPSPEDEAIYGPNTKMVRFKKGDSVGLRLAGGNDVGIFVAGIQEGTSAEQEGLQEGDQILKVNTQGFRGLVREDAVLYLLEIPKGETVTILAQSRADVYRDILACGRGDSFFIRSHFECEKETPQSLAFTRGEVFRVVDTLYDGKLGHWLAVRIGNELEKGLIPNKSRAEQMASVQNAQRENAGDRADFWRMRGQRSSGGVKKNLRKSREDLAAAVSVSTKFPAYEKVLLREAGFKRPVVLFGPIADIAMERSTELPDLFQTAKTEPKDAGSEKSSGVVRLNTVRQIIEQDKHALLDVTPKAVDLLNYTQWFPIVIFFNPDSRQGVKTIRQRLSPTSNKSSRKLFDQANKLKKTCSHLFTATINVNSANDGWFGSLKDSIQQQQNEAVWVSEGKMEGMDDDAEDRMSYLTAMGADYLSCDSRLISDFEDTDGEGGAYTDNELEEPAEEPLVSSITRSSEPVQHEENIRKSSPEPRAQMRRAASRDQLRELARPQPSSQSRPKARSQNREDSFDYSKSNLPATAGSEIPGGSTKGYPPPIAAKPAFGRPILKPSTPVPMPESEEVGESTEEQEDAPRSVLGRVKIFEKMDHKAKLQRMQELQEAQNARIEIAQKHPDIYAVPIKAPKPDAGLPPHMSSGPPEPQKAPSRLYQDTRGSYGSDPEEEEYRQQLAAHSKRGYYSQPSRYRDTEL", "soluble on expression in E. coli": "soluble"},
      {"sequence": "MSLAGDDAVNLTLVTGAPANGGSCVAHHEGRVVFVRYALPGERVRARVTAQRGSYWHAEAFEVIDPSPDRIGSLCSIAGADGAGCCDLAFAAPEAARTLKAQVVANQLERLGRHSWQGEAQPLSDAGPTGWRIRVRLDVGADRRPGFHRYHSGELVTDLDCGQLPVGMLDGLVAADWPPEAQLYVALDDDGERHVVCSVRQGPRNRTRTVTNVVEGAYHAHQRVHRRSWRVPVTAFWQAHRDAAAVYSDLIADWAQPAPGMTAWDLYGGAGVFAAVLGEAVGESGRVLTVDTSRLASGAARAALVDLPQVEVVTGSVRRVLAVQPAGADLAVLDPPRSGAGREVVDLLAGAGVPRLIHIGCEAASFARDIGLYRGHGYAVEKIKVFDAFPLTHYVECVALLTRKVEGHHHHHH", "soluble on expression in E. coli": "soluble"},
      {"sequence": "MALNFLSYDDDFCGYCGAILELPAQAPATVSCKVCSTRWAVKERVDQVVSRVEKIYERTVADTDGIENDESADAVVDHICTKCGHSKASYSTMQTRSADEGQTVFYTCLKCKKKDIEYS", "soluble on expression in E. coli": "not soluble"},
      {"sequence": "DDFLTLDACKIALKEMKKGFDLLCFDAFVHRVKTKQFYRFKQDEFFNQKEFLEFLSKQRHFCWSVWAKCFRKDIILKSFEKIKIDERLSYGEDVLFCYVYFMFCEKIAVFKTCIYHYEFNPNGRYENKNKEILWQNYQDKKKSNELVKKLCLNFKNNDFHKKLFEVLEKEEFDLQRRVDEARN", "soluble on expression in E. coli": "not soluble"},
      {"sequence": "GAMSYSLYGTTLEQQYNKPLSDLLIRCINCQKPLSPEEKQRHLDKKQRFHNIRGRWTGRCMSCSRSSRTRRETQL", "soluble on expression in E. coli": "soluble"},
      {"sequence": "MIALFSVLIAFLTPQANAVISGELNCTTYNGTAFVYTPSATACSNAISDSSCAALYPASDPATGYPAPGNDVERPFACYTTATPTPAPVVPDMRSAALKNCARTCGLCCKTADFDCPNVQFPRLTCSTITNEQCRSSVWRTIIATDCPSACGFCNQGGCVDGVMDCANDLSICNSVGMQEFVNQYCQRTCNRCSSSTAATGTGGSCGGRYIADSSTACAAWKLNGFCTNTFYTAAQRRSYCATTCSLC", "soluble on expression in E. coli": "not soluble"},
      {"sequence": "MGLSATIMEAEPEGRKRPGSRAIYFHKATLIHLESIFPGLGYTLAKNGLVWPIKRTFFRGKEVFVKDYGPTDPNQLPPFTSLPQDRAEQFMFDACLQAGVEFVWKTPIRQVETSPAGATLTTKAGDVWSADYVIGADGARSSVRTTAGMKLEGPRTNDTFLVVDVKEDEESPLPLERVFHYEHPAMGGRNVMFVPFVGGWRVDLQLLEHDDPEEYSHPEGVRRWIQKVMPAKYGERVTWVSTYRFHQVVADSFTDQHGKVLLAGEAAHLFAPFGARGLNSGTPDAIKAAQGIHTALSARDDQAAKQAIFAAAHERRIAALWNRDCSSTALEHLQGLEHHHHHH", "soluble on expression in E. coli": "not soluble"},
      {"sequence": "MESLNEYMDKIINRLKAVNEKDELVDEGMRKLQKCQEKIMKTRIDAQKHIDERHEQQSFEQQLLNKNMFETEQLEEKLKRLDDENKIGNEREFNKKLEAISAKWTDDVNLLKTTPNEPNDGNRKKLSNLSNILV", "soluble on expression in E. coli": "not soluble"},
      {"sequence": "MGSDKIHHHHHHMAVSIEGSPPCSYFMCLQLYSQYIRYNHFMRLNDEQQMNEKHSDHADKTKMPSSETLKQVCQPEERVLGRADDGSVMEFMLQTEHGNTYLCRFPPGFISHAAIQLCTEEIWYFIQGEGVFWIKHEGIERQVPFNAGTALHAPCGGAMQFRNNGHLEAVAHVVTMPPWPGSDGAKLTKGPWESV", "soluble on expression in E. coli": "not soluble"},
      {"sequence": "MLSATLLNRTVFHSLSPLHSLAHLASDMESSVNKAPSLIAAIVLGLGISACGYFVGDGVKHLKTNNRYVNVRGLSEKEVRADTAELTIAINFKGNVPGELFPKLEEAQKKIVAELNAQGINEKEIILGQWTSKRTDSFYLKDDPTMPRYNADGSVTIKTHNVAAVEKVVAKLNELQVATDGAIAESKVAYRFNGIGALRAEMIAAATKDARNAALQFATDSGSQVGSISDASQGVFQIFASGSDEDDPTAINKTVRVVTTVTYALQD", "soluble on expression in E. coli": "not soluble"},
      {"sequence": "MIKQVGNTQINPLHRLTCHCGKVELELTLPNGIEKPRRCDCSMCRRRGAIVASVPLSGIRIVQGDDVLKLYQFNTHTAKHFFCSECGIYTHHQRRSDPSEYGYNVGCLEGVNPYELGDIEVMDGVNHPSDRLEHHHHHH", "soluble on expression in E. coli": "not soluble"},
      {"sequence": "MGSDKIHHHHHHAEDYMETDKGHDTLTLTVNQQEIVLNEKNHTQEALTLSWTTGTNYGSGNRISYTLEIAKAGTDFARAYSVDLGTGTYQWTKKTEELNQFLNTQLGVGYAEKVSLEARITATVAGMEEKEQRATVALDVTTYQPVTPTLYLIGEAAPNGWSADQATPMERTDNGQFTWTGKLNTGVFKFITTLGEFLPSYNRDAAAGEELRLIYRTSGDEPDEPFTVSKEATYIVKVDLLDLTMTMTETENIGWRFEEFYIVGSFTGDNGWGFEALSKDAVQMNLFHYGAVIPWKADGDFKFTSVTDFGQSDAFFHPTEGNAPYTSTSVVLGGEDNKWQMKESECGKAYKVLFLTAKGKEKMLMRPFTPYEGLYLVGDATPNGWSIDNATPMAKSADSPYIFTWSGTLNTGEMKISCDKQSDWNGDWLMADKSGKAPTGEVETALFTSKTDAELKNMYPDTDLGSLDNKWNIQEAGSYRITIDQLKETISIVKQ", "soluble on expression in E. coli": "not soluble"},
      {"sequence": "MGSDKIHHHHHHMIVIEDVYKRYKTDHGPGKWILQGVNLTIPRNVNVGLIGSNGAGKSTLLRIIGGIDHPNKGKVERRCRLSWPMGQGGLEPTLTGRQNAKFVCRLHGHQDDLPERLIFIQDFSGLKDAFDEPVNTYSSGMRSRLQFAMSLAFDFDIYISDEVTAAGDAAFRDKAAAAFKGMTNRAGLIMVAHSESTLRQFCEAGILLYQGKAQWFDKIEEAFKAYKDTVQK", "soluble on expression in E. coli": "not soluble"},
      {"sequence": "MGSDKIHHHHHHLASHHSLLNHQRHFERIGPDYRNGDSVSFLDIKHTFGLQHIRVGKWVNREESALAANLIFDSLADLANILAVPPELIGLRGSLRFAFGHGGQKGVQAHYSPAYRELALAKNAGAGALAHEFWHAFDHYIADKMFIDDSILDPYLSSLILSEQTTNTTRTNFSRANLFACASDNWLADKSIIAHPLNKKLSSLFKVTLLSANGQEPHDYVRRSIALDKQQRSHYFAKPTEMMARAFESCIEMYSQDYANISNPYLVNSTIDSPLAKHGAYPDAQHCREIYQAMMEYFEPLGLAFDKQNGQK", "soluble on expression in E. coli": "not soluble"},
      {"sequence": "MAHHHHHHMLIPVRCYSCGKVVGHLYELYQELLNQDHTEAEALNALRLSRMCCRRMILSHIDLADDLLPYSVPVVGSMPLINPVQGPVPRRQ", "soluble on expression in E. coli": "not soluble"},
      {"sequence": "AIAGTAFPTMAEVVAEVAEMPTQMSPGAVEMSTPMSAEMMEMSTEVTEMTPGEALASSLFFQHHQFMCSECGSLYNTLEEVLSHQEQHMLAVSEEEALTTQNVGLEPELVPGAEGPFQCGECSQLILSPGELLAHQDAHLRESANQIQYQCWDCQELFPSPELWVAHRKAQHLSATVAEPPVPPPLPPPTPLPPPSPPSEVKMEPYECPECSTLCATPEEFLEHQGTHFDSLEKEERNGLEEEEEDDEEDEEDDEEMEDEEAMAEVGDDAVGGDESTAGWAQGCGDCPQHQPSAGARRQHRRTAHSPASATHPFHCSQCQRSFSSANRLQAHGRAHVGGTHECTTCSKVFKKAASLEQHLRLHRGEARYLCVDCGRGFGTELTLVAHRRAHTANPLHRCRCGKTFSNMTKFLYHRRTHAGKSGAPPTGATAPPAPAEPTPPPPPPAPPAQLPCPQCSKSFASASRLSRHRRAVHGPPERRHRCGVCGKGFKKLIHVRNHLRTHTGERPFQCHSCGKTFASLANLSRHQLTHTGARPYQCLDCGKRFTQSSNLQQHRRLHLRPVAFARAPRLPITGLYNKSPYYCGTCGRWFRAMAGLRLHQRVHARARTLTLQPPRSPSPAPPPPPEPQQTIMCTELGETIAIIETSQPLALEDTLQLCQAALGASEAGGLLQLDTAFV", "soluble on expression in E. coli": "soluble"},
      {"sequence": "MAHHHHHHMLRMKLVTYFEGFFFMATANDLPAAFRGSNCLQVQVNSKSGSKRVIRLVFIRHGQSVWNSLFNSFDATWPVRAVKAMVNEAVYFFTNPFDSVIVDSPLSEKGRSEAQELARFVRSAKGQVCFDASCSLIVCSNLRRAMETALVGMQPRIVSTGERIVVDSSLQEGSRNIDAQSLSTEPGKIVPCKMGELATPQLLGTAFDPHLNGGNRTAKRNVYDRMDEFVQHLFGGVKSNPYVPASGAESGNSALKEVIVVGHSGYFRCFFKRFLPSSSRHVAKTKKLKNCAVVSFDLVRNESTGEVYIEESTVSVLYKGF", "soluble on expression in E. coli": "not soluble"},
      {"sequence": "MSANFTDKNGRQSKGVLLLRTLAMPSDTNANGDIFGGWIMSQMDMGGAILAKEIAHGRVVTVAVESMNFIKPISVGDVVCCYGQCLKVGRSSIKIKVEVWVKKVASEPIGERYCVTDAVFTFVAVDNNGRSRTIPRENNQELEKALALISEQPL", "soluble on expression in E. coli": "soluble"},
      {"sequence": "QAPGWLKEMRGEHAPETEEYGIASTAYRARRPFHPQRFFDLINRPWTNGKLLRSKGFFWLASKYKDAGSWSQAGGLMRHGFAGRWWRFVTRDSWPQDKESVASILENWSSETGDCRQELVFIGQNIDFTLLTAELDNCLLTDDEMAAGAERWRQLSDPFGEWYEDEVAA", "soluble on expression in E. coli": "not soluble"}
    ]}
  ]
}
